IntAct's records for PubMed 23523103

Target: hsp7c_human HSPA8 (UniProt P11142)

L-lactate dehydrogenase A chain (Homo sapiens) (from UniProt P00338) K5Q
effect of a mutation on the interaction: increasing interaction
